This is an account of results in patent US20230140293A1.

Bounds are passed on as bounds.

For assay [1], the target named is CH505 transmitted/founder (TF) gp120 (HIV-1). In words: ELISA, gp120 on plate. For orientation: In an ELISA, binding on a coated surface is turned into a signal by an enzyme label.
For assay [2], the target named is CH505 w030.28 gp120 (HIV-1). In words: ELISA, gp120 on plate.
For assay [3], the target named is CH505 w078.15 gp120 (HIV-1). In words: ELISA, gp120 on plate.
Assay [4] has as its target CH505 w020.14 gp120 (HIV-1). In words: ELISA, gp120 on plate.
Assay [5] concerns the target CH505 M5 gp120 (HIV-1). In words: ELISA, gp120 on plate.
In assay [6] the target is CH505 M11 gp120 (HIV-1). In words: ELISA, gp120 on plate.
For assay [7], the target named is CH0505TF.gly3.461 Env, Env-pseudotyped virus produced in 293T cells (HIV-1). In words: cell-based or functional assay.
Assay [8] concerns the target CH0505TF Env, Env-pseudotyped virus produced in 293S GnTI- cells (Man5-enriched) (HIV-1). In words: cell-based or functional assay.
In assay [9] the target is HIV-1 Env 426c.DM (N460D.N463D), Env-pseudotyped virus produced in 293S GnTI- cells (Man5-enriched) (HIV-1 clade C strain 426c). In words: cell-based or functional assay.
For assay [10], the target named is HIV-1 Env 426c.DM (N460D.N463D), Env-pseudotyped virus produced in 293T cells (HIV-1 clade C strain 426c). In words: cell-based or functional assay.
For assay [11], the target named is HIV-1 clade C strain 426c Env on Env-pseudotyped virus produced in 293s/GnTI-/- cells (Man5-enrichment) (HIV-1). In words: cell-based or functional assay.
In assay [12] the target is HIV-1 426c.TM (N276D/N460D/N463D) Env on Env-pseudotyped virus produced in 293T cells (HIV-1). In words: cell-based or functional assay.
Assay [13] deals with HIV-1 Env 426c.TM4 (S278R.G471S.N460D.N463D), Env-pseudotyped virus produced in 293S GnTI- cells (Man5-enriched) (HIV-1 clade C strain 426c). In words: cell-based or functional assay.
In assay [14] the target is HIV-1 426c.SM (N276D) Env on Env-pseudotyped virus produced in 293s/GnTI-/- cells (Man5-enrichment) (HIV-1). In words: cell-based or functional assay.
The target in assay [15] is CH0505TF.gly3.197 Env, Env-pseudotyped virus produced in 293S GnTI- cells (Man5-enriched) (HIV-1). In words: cell-based or functional assay.
The target of assay [16] is CH0505TF.gly4 Env, Env-pseudotyped virus produced in 293T cells (HIV-1). In words: cell-based or functional assay.
The target of assay [17] is CH0505TF.gly3.276 Env, Env-pseudotyped virus produced in 293T cells (HIV-1). In words: cell-based or functional assay.
Assay [18] addresses HIV-1 clade C strain 426c Env on Env-pseudotyped virus produced in 293T cells (HIV-1). In words: cell-based or functional assay.
Assay [19] concerns the target HIV-1 426c.SM (N276D) Env on Env-pseudotyped virus produced in 293T cells (HIV-1). In words: cell-based or functional assay.
The target in assay [20] is CH0505TF.G458Y Env, Env-pseudotyped virus produced in 293S GnTI- cells (Man5-enriched) (HIV-1). In words: cell-based or functional assay.
Assay [21] deals with CH0505.w4.3 Env, Env-pseudotyped virus produced in 293T cells (HIV-1). In words: cell-based or functional assay.
Assay [22] deals with CH0505TF.gly3.461 Env, Env-pseudotyped virus produced in 293S GnTI- cells (Man5-enriched) (HIV-1). In words: cell-based or functional assay.
The target in assay [23] is CH0505TF.G458Y Env, Env-pseudotyped virus produced in 293T cells (HIV-1). In words: cell-based or functional assay.
For assay [24], the target named is HIV-1 Env 426c, Env-pseudotyped virus produced in 293S GnTI- cells (Man5-enriched) (HIV-1 clade C strain 426c). In words: cell-based or functional assay.
Assay [25] deals with CH0505TF.gly3.276 Env, Env-pseudotyped virus produced in 293S GnTI- cells (Man5-enriched) (HIV-1). In words: cell-based or functional assay.
Assay [26] has as its target HIV-1 426c.DM (N460D/N463D) Env on Env-pseudotyped virus produced in 293s/GnTI-/- cells (Man5-enrichment) (HIV-1). In words: cell-based or functional assay.
Assay [27] has as its target CH0505TF.gly4 Env, Env-pseudotyped virus produced in 293S GnTI- cells (Man5-enriched) (HIV-1). In words: cell-based or functional assay.
Assay [28] concerns the target CH0505TF.gly3.197 Env, Env-pseudotyped virus produced in 293T cells (HIV-1). In words: cell-based or functional assay.
For assay [29], the target named is HIV-1 Env 426c.TM (N276D.N460D.N463D), Env-pseudotyped virus produced in 293T cells (HIV-1 clade C strain 426c). In words: cell-based or functional assay.
Assay [30] concerns the target HIV-1 426c.DM (N460D/N463D) Env on Env-pseudotyped virus produced in 293T cells (HIV-1). In words: cell-based or functional assay.
Assay [31] has as its target HIV-1 Env 426c.SM (N276D), Env-pseudotyped virus produced in 293S GnTI- cells (Man5-enriched) (HIV-1 clade C strain 426c). In words: cell-based or functional assay.
Assay [32] has as its target HIV-1 Env 426c, Env-pseudotyped virus produced in 293T cells (HIV-1 clade C strain 426c). In words: cell-based or functional assay.
The target in assay [33] is HIV-1 Env 426c.SM (N276D), Env-pseudotyped virus produced in 293T cells (HIV-1 clade C strain 426c). In words: cell-based or functional assay.
In assay [34] the target is HIV-1 Env 426c.TM (N276D.N460D.N463D), Env-pseudotyped virus produced in 293S GnTI- cells (Man5-enriched) (HIV-1 clade C strain 426c). In words: cell-based or functional assay.
Assay [35] deals with HIV-1 Env 426c.TM4 (S278R.G471S.N460D.N463D), Env-pseudotyped virus produced in 293T cells (HIV-1 clade C strain 426c). In words: cell-based or functional assay.
Assay [36] deals with CH0505TF Env, Env-pseudotyped virus produced in 293T cells (HIV-1). In words: cell-based or functional assay.
The target in assay [37] is HIV-1 426c.TM (N276D/N460D/N463D) Env on Env-pseudotyped virus produced in 293s/GnTI-/- cells (Man5-enrichment) (HIV-1). In words: cell-based or functional assay.

Take “CH103 lineage intermediate ancestor IA6 (antibody)”: the log AUC in assay [1] is 9.1 log AUC; in assay [2], 6.3 log AUC; in [3], 1 log AUC; in assay [4] it was 7.9 log AUC; in [5] it was 3.3 log AUC; in [6], 10 log AUC.

Regarding “CH103 lineage intermediate ancestor IA7 (antibody)”, the log AUC came out at 9.2 log AUC in assay [1]; 3.5 log AUC in assay [2]; 0.7 log AUC in assay [3]; 7.2 log AUC in assay [4]; 2.3 log AUC in assay [5]; 10.1 log AUC in assay [6].

On to “CH103 lineage intermediate ancestor IA8 (antibody)”, for which the log AUC in assay [1] came out at 5.5 log AUC; in [2], 1.6 log AUC; in assay [4], 3.4 log AUC; in assay [5], 0.6 log AUC; in [6], 6.2 log AUC.

With PGT121 (antibody), the IC50 (µg/ml) in TZM-bl in assay [7] is over 5 µg/mL; in assay [8], over 5 µg/mL; in assay [9], 3.4 µg/mL; in assay [10], over 5 µg/mL; in assay [13], over 5 µg/mL; in [15], over 5 µg/mL. Also, the IC50 (µg/ml) in TZM-bl was over 5 µg/mL in assay [16]; over 5 µg/mL in [17]; over 5 µg/mL in [20]; over 20 µg/mL in [21]; over 5 µg/mL in assay [22]; over 5 µg/mL in assay [23]. The IC50 (µg/ml) in TZM-bl was 2.5 µg/mL in assay [24]; over 5 µg/mL in assay [25]; over 5 µg/mL in assay [27]; over 5 µg/mL in [28]; over 5 µg/mL in [29]; 4.2 µg/mL in assay [31]. For the same substance, the IC50 (µg/ml) in TZM-bl in [32] is over 5 µg/mL; in [33], over 5 µg/mL; in assay [34], 3.4 µg/mL; in [35], over 5 µg/mL; in assay [36], over 5 µg/mL. For the same substance, the ID50/IC50 in TZM-bl in assay [11] was 2.5 µg/mL; in assay [12], over 5 µg/mL; in assay [14] it was 4.2 µg/mL; in assay [18] it was over 5 µg/mL; in assay [19], over 5 µg/mL; in assay [26], 3.4 µg/mL. Besides, the ID50/IC50 in TZM-bl was over 5 µg/mL in assay [30] and 3.4 µg/mL in assay [37].

Consider PGT128 (antibody), for which the IC50 (µg/ml) in TZM-bl in assay [7], in assay [8], in assay [9], in assay [10], in [13] and in assay [15] was over 5 µg/mL each time. The IC50 (µg/ml) in TZM-bl was over 5 µg/mL in assay [16]; over 5 µg/mL in assay [17]; over 5 µg/mL in assay [20]; over 10 µg/mL in [21]; over 5 µg/mL in assay [22]; over 5 µg/mL in assay [23]. Also, the IC50 (µg/ml) in TZM-bl in assay [24] is 4.3 µg/mL; in assay [25], over 5 µg/mL; in assay [27], over 5 µg/mL; in assay [28], over 5 µg/mL; in assay [29], over 5 µg/mL; in assay [31], over 5 µg/mL. Further, the IC50 (µg/ml) in TZM-bl in assay [32], in assay [33], in [34], in [35] and in assay [36] was over 5 µg/mL throughout. The ID50/IC50 in TZM-bl in [11] is 4.3 µg/mL; in assay [12] it was over 5 µg/mL; in assay [14], over 5 µg/mL; in assay [18] it was over 5 µg/mL; in [19], over 5 µg/mL; in assay [26], over 5 µg/mL. The ID50/IC50 in TZM-bl in assay [30] and in assay [37] was over 5 µg/mL throughout.

Consider PGT151 (antibody), for which the IC50 (µg/ml) in TZM-bl in assay [7] was 0.01 µg/mL; in assay [8], over 5 µg/mL; in assay [9] it was 2.2 µg/mL; in assay [10] it was 0.01 µg/mL; in assay [13] it was 2.9 µg/mL; in assay [15], over 5 µg/mL. The IC50 (µg/ml) in TZM-bl in assay [16] is 0.01 µg/mL; in assay [17] it was 0.007 µg/mL; in assay [20], over 5 µg/mL; in assay [21] it was over 25 µg/mL; in assay [22] it was over 5 µg/mL; in [23], 0.01 µg/mL. The IC50 (µg/ml) in TZM-bl was 1.6 µg/mL in assay [24]; over 5 µg/mL in [25]; 0.13 µg/mL in assay [27]; 0.01 µg/mL in assay [28]; 0.01 µg/mL in [29]; 1.9 µg/mL in assay [31]. Besides, the IC50 (µg/ml) in TZM-bl in assay [32] was determined as 0.01 µg/mL; in assay [33] it was 0.01 µg/mL; in assay [34], 2.5 µg/mL; in [35] it was 0.01 µg/mL; in assay [36] it was 0.01 µg/mL. Moreover, the ID50/IC50 in TZM-bl in [11] was found to be 1.6 µg/mL; in assay [12], 0.01 µg/mL; in assay [14], 1.9 µg/mL; in assay [18] it was 0.01 µg/mL; in assay [19] it was 0.01 µg/mL; in [26], 2.2 µg/mL. The ID50/IC50 in TZM-bl in assay [30] was found to be 0.01 µg/mL; in assay [37], 2.5 µg/mL.
